# Measurements as given in patent publication US20210000969A1 (HUALAN GENETIC ENGINEERING, published 2021).
# T1: mouse PV-1 protein (mouse, UniProt Q91VC4 1-438, limits assumed)
# T1 construct: The form tested is not described
# T1 sequence: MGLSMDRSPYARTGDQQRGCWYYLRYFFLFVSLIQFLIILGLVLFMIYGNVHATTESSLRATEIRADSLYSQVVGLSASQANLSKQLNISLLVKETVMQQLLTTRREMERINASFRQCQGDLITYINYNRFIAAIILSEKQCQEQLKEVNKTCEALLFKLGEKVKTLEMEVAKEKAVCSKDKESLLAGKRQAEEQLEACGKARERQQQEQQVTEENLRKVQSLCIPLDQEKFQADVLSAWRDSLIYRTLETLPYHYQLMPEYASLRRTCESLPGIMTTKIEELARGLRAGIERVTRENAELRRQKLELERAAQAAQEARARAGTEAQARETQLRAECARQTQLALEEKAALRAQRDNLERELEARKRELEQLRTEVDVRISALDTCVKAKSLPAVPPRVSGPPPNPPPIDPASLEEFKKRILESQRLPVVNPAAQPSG
# B1: murine monoclonal antibody STW-139-15 (antibody, V domains shown)
# VH: QVQLQQSGAELVKPGASVKLSCKASGYTFTDYYMYWVKQRPGQGLELIGEINPTNGDVNFNEMFKSKATLTVDTSSRTAYMQLSSLTSEDSAVYYCTSIHYWGQGTLVTVSA
# VL: DIVMTQSPSSMYASLGERITITCKASQDIKTNLSWYQQKPWKSPKTLIYYATDLADGVPSRFSGSGSGQYFSLTISSLESDDTATYYCLQHDDRPFTFGSGTKLEIK
# Target: T1, mouse PV-1 protein
# Assay: not described
binder,measurement,value
B1,binding result,no binding
